This is an account of results in patent publication US9725708B2, “Methods of modulating ubiquitin ligase activity” (Board of Supervisors of Louisiana State University and …, priority 2012, dated 2017).

Data set [1] has as its target T1, E6AP ligase (Homo sapiens, UniProt Q05086).
T1 construct: corresponding to full-length GST-E6AP; made in house; host or cells: E. coli
T1 sequence (Q05086 1-872 isoform Q05086-3): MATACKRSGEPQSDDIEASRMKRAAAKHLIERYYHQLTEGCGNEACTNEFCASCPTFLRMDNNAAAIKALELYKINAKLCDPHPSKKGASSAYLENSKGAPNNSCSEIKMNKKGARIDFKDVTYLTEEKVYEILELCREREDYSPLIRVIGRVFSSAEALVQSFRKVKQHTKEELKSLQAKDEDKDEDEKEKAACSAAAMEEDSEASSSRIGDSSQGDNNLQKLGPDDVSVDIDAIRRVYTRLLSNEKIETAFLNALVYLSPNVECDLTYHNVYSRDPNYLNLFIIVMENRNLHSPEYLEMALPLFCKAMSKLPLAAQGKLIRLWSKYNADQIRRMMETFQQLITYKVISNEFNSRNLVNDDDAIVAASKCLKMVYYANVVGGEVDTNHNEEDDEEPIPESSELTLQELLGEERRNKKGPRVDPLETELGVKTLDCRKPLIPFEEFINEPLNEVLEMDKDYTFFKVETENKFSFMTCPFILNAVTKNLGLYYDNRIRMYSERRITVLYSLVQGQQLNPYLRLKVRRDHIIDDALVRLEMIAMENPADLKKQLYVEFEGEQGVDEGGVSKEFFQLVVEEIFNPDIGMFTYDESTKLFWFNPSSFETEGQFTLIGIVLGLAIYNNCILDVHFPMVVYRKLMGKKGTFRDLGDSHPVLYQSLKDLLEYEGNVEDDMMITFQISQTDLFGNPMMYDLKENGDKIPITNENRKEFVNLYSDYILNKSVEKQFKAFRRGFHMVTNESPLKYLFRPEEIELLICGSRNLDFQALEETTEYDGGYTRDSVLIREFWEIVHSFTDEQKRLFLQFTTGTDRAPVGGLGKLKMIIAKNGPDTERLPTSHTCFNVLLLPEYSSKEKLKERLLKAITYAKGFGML
Description: E6AP-catalyzed 125I-polyubiquitin chain formation, initial rates. It is filed as biochemical. The conditions noted are these: for mode of action: with respect to [UbcH7]o. As to the method:
(§1) E6AP-catalyzed ^125I-Ubiquitin Conjugation Assay: The E3 ligase activity of recombinant E6AP ligase was quantitated in kinetic assays under initial velocity conditions (Ronchi et al., (2013) J. Biol. Chem. 288, 10349-10360, Ronchi & Haas (2012) Methods Mol. Biol. 832: 197-218). Rates of E6AP-catalyzed ^125I-polyubiquitin chain formation were measured at 37° C. in incubations of 25-μl final volume containing 50 mM Tris-HCl (pH 7.5), 1 mM ATP, 10 mM MgCl2, 1 mM DTT, 10 mM creatine phosphate, 1 IU of creatine phosphokinase, 5 μM ^125I-ubiquitin (approximately 1.5×10^4 cpm/pmol), 50 nM human Uba1, and the indicated concentrations of UbcH7 and E6AP ligase (Siepmann et al., (2003) J. Biol. Chem. 278: 9448-9457; Baboshina et al., (2001) J. Biol. Chem. 276: 39428-39437).
(§2) Reactions were initiated by the addition of ^125I-ubiquitin. After 10-30 min, the reactions were quenched by the addition of 25 μl of 2×SDS sample buffer containing 0.3% (v/v) β-mercaptoethanol, and then the samples were heated to 100° C. for 3 min. The polyubiquitin conjugates were resolved from free ^125I-ubiquitin by 12% (w/v) SDS-PAGE under reducing conditions at 4° C. and visualized by autoradiography of the dried gels.
(§3) Polyubiquitin chain formation was measured by excising lanes between the top of the resolving gel and the top of the stacker gel, representing anchored and free ^125I-polyubiquitin chains, respectively, and quantitating associated ^125I-ubiquitin by γ-counting. Absolute rates of ^125I-polyubiquitin chain formation were calculated from the associated radioactivity and the corrected specific radioactivity for ^125I-ubiquitin. Datum points represent single assay determinations, and complete data sets were evaluated by non-linear regression analysis using GraFit version 5.0 (Erithicus). Active Uba1, E2, and E6AP ligase were independently determined in parallel by their stoichiometric formation of ^125I-ubiquitin thioester.

A further data set concerns the target T2, His6-E6AP ligase (Homo sapiens, UniProt Q05086).
T2 construct: Full-length recombinant His6-E6AP ligase was isolated from the medium; made in house; host or cells: Sf9 insect cells (baculovirus)
T2 sequence (Q05086 1-872 isoform Q05086-3): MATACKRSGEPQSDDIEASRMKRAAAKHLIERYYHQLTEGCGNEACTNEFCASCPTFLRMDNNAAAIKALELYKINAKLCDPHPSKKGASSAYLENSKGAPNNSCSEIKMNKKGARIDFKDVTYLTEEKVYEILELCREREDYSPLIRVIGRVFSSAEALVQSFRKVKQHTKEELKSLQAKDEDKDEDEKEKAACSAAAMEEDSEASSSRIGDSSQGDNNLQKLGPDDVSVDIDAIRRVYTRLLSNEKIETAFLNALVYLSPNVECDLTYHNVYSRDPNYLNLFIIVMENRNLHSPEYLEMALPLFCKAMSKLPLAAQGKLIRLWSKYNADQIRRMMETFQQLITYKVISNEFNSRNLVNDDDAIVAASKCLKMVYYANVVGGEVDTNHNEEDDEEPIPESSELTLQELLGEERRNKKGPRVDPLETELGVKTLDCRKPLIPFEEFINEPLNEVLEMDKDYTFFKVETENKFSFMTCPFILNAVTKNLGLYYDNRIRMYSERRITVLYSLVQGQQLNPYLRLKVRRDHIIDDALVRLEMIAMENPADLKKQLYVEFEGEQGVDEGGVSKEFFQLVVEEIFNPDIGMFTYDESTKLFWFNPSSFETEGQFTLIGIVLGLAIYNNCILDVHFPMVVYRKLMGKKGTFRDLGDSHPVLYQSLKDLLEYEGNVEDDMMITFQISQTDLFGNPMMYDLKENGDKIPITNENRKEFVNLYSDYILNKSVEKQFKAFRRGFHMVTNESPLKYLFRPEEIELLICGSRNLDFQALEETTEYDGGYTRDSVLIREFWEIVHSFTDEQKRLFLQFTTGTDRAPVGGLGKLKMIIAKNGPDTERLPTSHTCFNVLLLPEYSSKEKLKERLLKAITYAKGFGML
Nature of the data set: Static light-scattering of His6-E6AP ligase oligomer. As for the experimental part: Static Light-scattering Measurements: His6-E6AP ligase after the His trap affinity purification step was further purified by FPLC using a Mono Q 5/50 column (Amersham Biosciences) equilibrated in 50 mM Tris-HCl (pH 7.5) and 1 mM DTT. Recombinant His6-E6AP ligase eluted at 300 mM NaCl in a 0-500 mM gradient (16 mM/ml, 1 ml/min). The molecular weight of His6-E6AP ligase was determined in solution at 37° C. by static light-scattering using a 235-DynaPro NanoStar laser light-scattering spectrometer at 663 nm wavelength (Wyatt Technology Corp.). Spectra were collected for 18 μM His6-E6AP ligase in 50 mM Tris-HCl (pH 7.5) containing 200 mM NaCl. The effect of Ac-PheNH2 on the molecular weight of His6-E6AP ligase was determined in 50 mM Tris-HCl (pH 7.5) containing 200 mM NaCl, 16 μM His6-E6AP ligase total protein, 61 mM Ac-PheNH2, and 8% (v/v) carrier methanol. The molecular weight of E6AP ligase was also evaluated in reactions containing 0-350 μM Ac-NRIRMYSERRITVLYSL (SEQ ID NO: 1) in 50 mM Tris-HCl (pH 7.5), 250 mM NaCl, 1 mM DTT, and 17 μM His6-E6AP. Data were analyzed with Dynamics® software at both default and maximum sensitivity to detect the presence of low concentrations of E6AP ligase oligomeric forms.

Data set [2] has as its system E6AP ligase. Nature of the data set: E6AP-catalyzed 125I-polyubiquitin chain formation, initial rates. Format: biochemical, Human. The following applies: free GST less than 5 μM; GST-E6AP. As to the method:
as §1, §2, §3

The target in data set [3] is T3, GST (Schistosoma japonicum, UniProt P08515). Description: GST dimerization. It is filed as binding. The conditions noted are these: predicted from ΔΔGbinding of GST-E6APΔ495 vs E6APΔ495.
T3 sequence (P08515 whole entry): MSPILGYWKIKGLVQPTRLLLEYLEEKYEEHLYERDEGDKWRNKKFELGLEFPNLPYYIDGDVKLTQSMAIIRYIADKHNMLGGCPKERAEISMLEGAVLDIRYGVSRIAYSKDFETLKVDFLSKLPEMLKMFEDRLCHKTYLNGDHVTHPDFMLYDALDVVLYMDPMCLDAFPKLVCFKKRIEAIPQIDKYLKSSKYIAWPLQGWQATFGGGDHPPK
Data set [4] concerns the target T3, GST. The conditions noted are these: literature value, cited from earlier work.
The target of data set [5] is T4, UbcH7˜ubiquitin thioester (Homo sapiens, UniProt P68036).
T4 construct: made in house
T4 sequence (P68036 whole entry, other chains not shown): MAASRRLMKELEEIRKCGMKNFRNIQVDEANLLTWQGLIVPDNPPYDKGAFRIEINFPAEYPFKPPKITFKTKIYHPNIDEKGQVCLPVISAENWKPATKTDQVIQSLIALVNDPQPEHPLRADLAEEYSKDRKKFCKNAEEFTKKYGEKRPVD
Nature of the data set: Kinetics of 125I-polyubiquitin chain formation by E6AP ligase forms with respect to [UbcH7]o. Format: biochemical. As to the method:
as §1, §2, §3

The mark [6] stands for this setting: Table 1, Hect domain row is monoubiquitination.
Setting [7] is: non-competitive with respect to [UbcH7]o, His6-E6AP, read-out: Ki.

Like-named read-outs stand apart in the source and are kept apart here. No end group written: not given here.

With `CC(=O)N[C@@H](Cc1ccccc1)C(N)=O` [Ac-PheNH2, N-acetyl-L-phenylalanylamide], the Ki was determined as 12000 ± 3000 µM on E6AP ligase [1] (125I-polyubiquitin chain formation, read-out: Ki) and 12000 ± 3000 µM at E6AP ligase [1] (His6-E6AP, non-competitive with respect to [UbcH7]o, absence or presence of 44 mM Ac-PheNH2, read-out: Ki). Further, the “effect on polyubiquitin chain formation” value on E6AP ligase [1] (inhibitors, at higher concentrations) is “quantitative inhibition”. The mode of action entry on E6AP ligase [1] is reported as “non-competitive inhibitor”. Further, the “effect on E6AP ligase oligomer” value on His6-E6AP ligase is reported as “disrupts trimer formation”. Further, the “molecular weight of His6-E6AP ligase peak after addition” value at His6-E6AP ligase (61 mM Ac-PheNH2, 16 μM His6-E6AP, 8% methanol) stood at 104 kDa.

For “Ac-NRIRMYSERRITVLYSL [Ac-NRIRMYSERRITVLYSL peptide, Ac-NRIRMYSERRITVLYSL]”, the Ki at E6AP ligase [1] (His6-E6AP, hyperbolic dependence, semi-reciprocal plot, read-out: Ki (apparent)) is 22 ± 2 µM. Besides, the mode of action entry at E6AP ligase [1] is reported as “non-competitive inhibitor”. Moreover, on His6-E6AP ligase, the “effect on E6AP ligase oligomer” value is reported as “promotes dissociation”.

Take “GST: recombinant free glutathione-S-transferase”: the “K½ of decrease in initial rate of polyubiquitin chain formation” value with E6AP ligase [2] is listed as “approximately 1 μm”. Also, the “Kd for GST association” value with GST [3] was 1.6 µM. In the data set with GST [4] (b128, read-out: Kd for GST dimerization), the dissociation constant (Kd) was 0.6 µM. In addition, the “Kd for GST association, published value” with GST [4] (b130) was 0.6 µM.

With “Homogeneous His6-E6AP: baculoviral-expressed full-length His6-E6AP ligase”, in data set [5], the Km was 0.046 ± 0.007 µM, the kcat amounted to 0.63 ± 0.03 s⁻¹ and the “kcat higher than heterogeneous GST-E6AP” value worked out at 20 fold. Also, the turnover number (kcat) in data set [5] (Table 1) is recorded as 6.3 ± 0.3 × 10^−1 s^−1. Moreover, in data set [5] (setting [6]), the Km is 0.046 ± 0.007 µM.

B1: E6(HPV16)Δ91: recombinant E6 N-terminal domain encompassing residues 1-91 (protein, UniProt P03126 1-91, looked up, fragment)
chain: MHQKRTAMFQDPQERPRKLPQLCTELQTTIHDIILECVYCKQQLLRREVYDFAFRDLCIVYRDGNPYAVCDKCLKFYSKISEYRHYCYSLY
Take B1: the Ki in the data set with E6AP ligase [1] (hyperbolic concentration dependence, not shown, read-out: apparent Ki) worked out at 4 µM; in the data set with E6AP ligase [1] (setting [7]), 6 µM. For the same molecule, the mode of action result with E6AP ligase [1] is recorded as “non-competitive inhibition”.

B2: E6(HPV16)Ct: recombinant E6 C-terminal domain encompassing residues 89-158 (protein, UniProt P03126 89-158, looked up, fragment)
chain: SLYGTTLEQQYNKPLCDLLIRCINCQKPLCPEEKQRHLDKKQRFHNIRGRWTGRCMSCCRSSRTRRETQL
On to B2, for which, in the data set with E6AP ligase [1] (setting [7]), the Ki came to 4 µM. Also, the mode of action result with E6AP ligase [1] is “non-competitive inhibitor”.

B3: GST-E6AP ligase Hect domain: GST fusion of E6AP ligase Hect domain residues 450-852 (protein, UniProt Q05086 450-852, looked up, fragment)
chain: INEPLNEVLEMDKDYTFFKVETENKFSFMTCPFILNAVTKNLGLYYDNRIRMYSERRITVLYSLVQGQQLNPYLRLKVRRDHIIDDALVRLEMIAMENPADLKKQLYVEFEGEQGVDEGGVSKEFFQLVVEEIFNPDIGMFTYDESTKLFWFNPSSFETEGQFTLIGIVLGLAIYNNCILDVHFPMVVYRKLMGKKGTFRDLGDSHPVLYQSLKDLLEYEGNVEDDMMITFQISQTDLFGNPMMYDLKENGDKIPITNENRKEFVNLYSDYILNKSVEKQFKAFRRGFHMVTNESPLKYLFRPEEIELLICGSRNLDFQALEETTEYDGGYTRDSVLIREFWEIVHSFTDEQKRLFLQFTTGTDRAPVGGLGKLKMIIAKNGPDTERLPTSHTCFNVLLLPEY
modifications: HECT domain GST fusion
For B3, in data set [5], the Km is 0.089 ± 0.011 µM and the “kcat lower than full-length E6AP ligase” value turned out to be 2000 fold. Besides, the kcat in data set [5] (Table 1) is 3.2 ± 0.1 × 10^−4 s^−1. For the same molecule, the Km in data set [5] (setting [6]) was 0.089 ± 0.011 µM.
